In article PMC4613674:

Target: MBP–Cas5–Cas7 complex (Methanothermobacter thermautotrophicus) (Methanothermobacter thermautotrophicus ΔH)
Assay: pull-down; MBP–Cas5–Cas7 (20 μg) held on amylose resin, His6–Cas8′ (20 μg) added, final volume 500 μl, 2–4 h at 4°C; 20 mM Tris/HCl pH 8.0, 150 mM NaCl, 1 mM EDTA, 1% Tween; western blots with anti-His6 and anti-MBP; with or without pre-incubation of Cas5–Cas7 with crRNA1

## N-terminal hexahistidine-tagged Mth Cas8′ (natural protein)
  percent of input bound: < 10%
